Like-named read-outs stand apart in the source and are kept apart here. Where no end group is shown, it is not given here.
B1: Recombinant human integrin αvβ6 (complex)
chain 1: FNLDVDSPAEYSGPEGSYFGFAVDFFVPSASSRMFLLVGAPKANTTQPGIVEGGQVLKCDWSSTRRCQPIEFDATGNRDYAKDDPLEFKSHQWFGASVRSKQDKILACAPLYHWRTEMKQEREPVGTCFLQDGTKTVEYAPCRSQDIDADGQGFCQGGFSIDFTKADRVLLGGPGSFYWQGQLISDQVAEIVSKYDPNVYSIKYNNQLATRTAQAIFDDSYLGYSVAVGDFNGDGIDDFVSGVPRAARTLGMVYIYDGKNMSSLYNFTGEQMAAYFGFSVAATDINGDDYADVFIGAPLFMDRGSDGKLQEVGQVSVSLQRASGDFQTTKLNGFEVFARFGSAIAPLGDLDQDGFNDIAIAAPYGGEDKKGIVYIFNGRSTGLNAVPSQILEGQWAARSMPPSFGYSMKGATDIDKNGYPDLIVGAFGVDRAILYRARPVITVNAGLEVYPSILNQDNKTCSLPGTALKVSCFNVRFCLKADGKGVLPRKLNFQVELLLDKLKQKGAIRRALFLYSRSPSHSKNMTISRGGLMQCEELIAYLRDESEFRDKLTPITIFMEYRLDYRTAADTTGLQPILNQFTPANISRQAHILLDCGEDNVCKPKLEVSVDSDQKKIYIGDDNPLTLIVKAQNQGEGAYEAELIVSIPLQADFIGVVRNNEALARLSCAFKTENQTRQVVCDLGNPMKAGTQLLAGLRFSVHQQSEMDTSVKFDLQIQSSNLFDKVSPVVSHKVDLAVLAAVEIRGVSSPDHVFLPIPNWEHKENPETEEDVGPVVQHIYELRNNGPSSFSKAMLHLQWPYKYNNNTLLYILHYDIDGPMNCTSDMEINPLRIKISSLQTTEKNDTVAGQGERDHLITKRDLALSEGDIHTLGCGVAQCLKIVCQVGRLDRGKSAILYVKSLLWTETFMNKENQNHSYSLKSSASFNVIEFPYKNLPIEDITNSTLVTTNVTWGIQPAPMPV
chain 2: GCALGGAETCEDCLLIGPQCAWCAQENFTHPSGVGERCDTPANLLAKGCQLNFIENPVSQVEILKNKPLSVGRQKNSSDIVQIAPQSLILKLRPGGAQTLQVHVRQTEDYPVDLYYLMDLSASMDDDLNTIKELGSRLSKEMSKLTSNFRLGFGSFVEKPVSPFVKTTPEEIANPCSSIPYFCLPTFGFKHILPLTNDAERFNEIVKNQKISANIDTPEGGFDAIMQAAVCKEKIGWRNDSLHLLVFVSDADSHFGMDSKLAGIVIPNDGLCHLDSKNEYSMSTVLEYPTIGQLIDKLVQNNVLLIFAVTQEQVHLYENYAKLIPGATVGLLQKDSGNILQLIISAYEELRSEVELEVLGDTEGLNLSFTAICNNGTLFQHQKKCSHMKVGDTASFSVTVNIPHCERRSRHIIIKPVGLGDALELLVSPECNCDCQKEVEVNSSKCHHGNGSFQCGVCACHPGHMGPRCECGEDMLSTDSCKEAPDHPSCSGRGDCYCGQCICHLSPYGNIYGPYCQCDNFSCVRHKGLLCGGNGDCDCGECVCRSGWTGEYCNCTTSTDSCVSEDGVLCSGRGDCVCGKCVCTNPGASGPTCERCPTCGDPCNSKRSCIECHLSAAGQAREECVDKCKLAGATISEEEDFSKDGSVSCSLQGENECLITFLITTDNEGKTIIHSINEKDCPKPPNIP

Key:
R01-MW = test: FACS
[1] = molecular target: B1; test: FACS; competition with yeast-displayed R01-MG
[2] = molecular target: B1; test: FACS; competition with yeast-displayed R01-MG

IC50 [2] [nM] | Binder | also measured
– | B1 | Kd (R01-MW): 1.69 nM
– | {2‑(19F)fluoropropionyl}-GCILNGRTDLGTLLFRCRRDSDCPGACICRGNGYCG-NH2 (disulfide (positions not given here); not fully specified (bridges)) [[19F]FP-R01-MG-F1] | IC50 [1]: 0.541 nM
0.469 | {(19F)fluoropropyl}-GCILNGRTDLGTLLFRCRRDSDCPGACICRGNGYCG (designed binder, disulfide (positions not given here); not fully specified (C-terminus)) [[^19F]FP-R01-MG-F2] | –
0.383 | GCILNGRTDLGTLLFRCRRDSDCPGACICRGNGYCG-NH2 (designed binder, disulfide (positions not given here)) [R01-MG synthetic cystine knot peptide (unlabeled precursor)] | –

— publication PMC6791878 (2019)
